US20030108548A1 (TOLERANCE THERAPEUTICS, published 2003)
Where a chain is given by its changes, count along the chain named.

Columns and labels:
[1] = target: human FcR I and FcR II on cells; experiment: 125I-human IgG on U937 cells in the absence of inhibitor
human CD3 complex [2] = target: T1, human CD3 complex (human, UniProt P07766 23-207); experiment: competition against FITC-mOKT3 tracer on human PBMC, flow cytometry; affinity calculated from the competitor concentration at half-maximal tracer binding (FIG. 3A)
T1 construct: whole, on cells; In all assays the target stood on cells as the whole TCR/CD3 complex; also called CD3 antigen; TCR complex

[3] = target: human FcR I and FcR II on cells; experiment: competitive inhibition of PE-murine IgG2a or 125I-human IgG binding to U937 cells
human CD3 complex [4] = target: T1, human CD3 complex; experiment: competition against FITC-mOKT3 tracer on human PBMC, flow cytometry; affinity calculated from the competitor concentration at half-maximal tracer binding (FIG. 3B)

125I-labelled human IgG (antibody)
maximum binding [1]: 2750 cpm
maximum binding as percent of the total radioactivity added [1]: 15%

B1: gOKT3-5 (antibody, human IgG4, V domains shown)
VH: QVQLVQSGGGVVQPGRSLRLSCKASGYTFTRYTMHWVRQAPGKGLEWIGYINPSRGYTNYNQKVKDRFTISTDKSKSTAFLQMDSLRPEDTAVYYCARYYDDHYCLDYWGQGTPVTVSS
VL: DIQMTQSPSSLSASVGDRVTITCSASSSVSYMNWYQQTPGKAPKRWIYDTSKLASGVPSRFSGSGSGTDYTFTISSLQPEDIATYYCQQWSSNPFTFGQGTKLQITR
notes: Humanized OKT3, human IgG4/kappa; also called gLC/gHA; gOKT3-5(γ4); not shown: human IgG4 heavy chain constant region; human kappa light chain constant region
Ka (human CD3 complex [2]): 1.1e+09 M⁻¹
fold higher concentration for the same inhibition, against murine OKT3 [3]: 10 fold

B2: gOKT3-7(γ4) (antibody, V domains shown)
VH: B1 VH with T72R, K74N, S77N, A92G, Y95F
VL: B1 VL
Ka (human CD3 complex [4]): 1.4e+09 M⁻¹
